Blank lines part the entries; values can stand above or below the binder they belong to. No end group written: not given here. puromycin linker = puromycin spacer joining the C-terminus of the translated peptide to its mRNA (mRNA display); mRNA = not defined here
Tests used:
[1] = target: T1, biotinylated splitNanoluc1-8; assay: mRNA display pull-down: 33 nM Display molecule with 1 µM biotinylated splitNanoluc1-8, streptavidin beads, TEV elution, qPCR
T1 chain: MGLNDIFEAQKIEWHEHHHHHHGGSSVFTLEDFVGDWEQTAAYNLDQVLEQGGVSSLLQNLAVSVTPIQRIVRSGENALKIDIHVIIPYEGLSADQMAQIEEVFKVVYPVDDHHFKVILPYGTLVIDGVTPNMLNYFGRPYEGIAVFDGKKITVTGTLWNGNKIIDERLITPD

[2] = target: T1, biotinylated splitNanoluc1-8; assay: mRNA display pull-down with biotinylated splitNanoluc1-8, qPCR; corrected with the display efficiency
[3] = target: biotinylated GFP1-9; assay: mRNA display pull-down: 0.42 µM Display molecule with 1 µM biotinylated GFP1-9, streptavidin beads, TEV elution, qPCR
[4] = target: biotinylated GFP1-9; assay: mRNA display pull-down with biotinylated GFP1-9, qPCR
[5] = target: biotinylated GFP1-9; assay: mRNA display pull-down with biotinylated GFP1-9, qPCR; corrected with the display efficiency
[6] = target: anti-ubiquitin antibody (Mouse IgG1 monoclonal antibody; clone name FK2); assay: mRNA display pull-down on anti-ubiquitin antibody (FK2) magnetic beads, heat elution, qPCR
[7] = target: anti-ubiquitin antibody (Mouse IgG1 monoclonal antibody; clone name FK2); assay: mRNA display pull-down on anti-ubiquitin antibody (FK2) magnetic beads, qPCR; corrected with the display efficiency
[8] = target: anti-ubiquitin antibody (Mouse IgG1 monoclonal antibody; clone name FK2); assay: mRNA display pull-down on anti-ubiquitin antibody (FK2) magnetic beads, qPCR; display molecule at 0.4 µM

Apparent recovery rate (%) [1]: 12.6%
Recovered nucleic acid amount (molecules) [1]: 3.45e+09 molecules
Recovery rate (%) [2]: 33.2%
Binder: MGSMLFRVTINSGGGSGGGGSGVSGWRLFKKISGSGSGSGSENLYFQGKK (modifications not checked) [splitNanoluc9-10 fusion peptide]

Apparent recovery rate (%) [3]: 0.0109%
Recovered nucleic acid amount (molecules) [3]: 8.95e+07 molecules
fold lower recovery rate than the GFP10-11 fusion peptide [4]: 1000 times
Recovery rate (%) [5]: 0.012%
Binder: MEKRDHMVLLEYVTAAGITDASGSGSGSGSKK (modifications not checked) [GFP11]

Apparent recovery rate (%) [6]: 0.931%
Recovered nucleic acid amount (molecules) [6]: 1.63e+10 molecules
Recovery rate (%) [7]: 1.04%
Binder: MMQIFVKTLTGKTATLEVEPSDTIENVKAKIQDKEGIPGSGSGSGSKK-{puromycin linker-mRNA} (reading uncertain; also: mRNA reverse transcribed before assay) [splitUb(N)]

Recovery rate (%) [7]: 0.0004%
Apparent recovery rate (%) [8]: 0.0001%
Recovered nucleic acid amount (molecules) [8]: 377000 molecules
B1: Epep-splitUb(N) (protein)
chain: MKVSALENEVSALEKEVSVLEKEVSALEKEVRALEKGSGSGSGSMQIFVKTLTGKTATLEVEPSDTIENVKAKIQDKEGIPGSGSGSGSKK
modifications: C-terminus joined through a puromycin linker to its own mRNA (reverse transcribed before the assay)

Apparent recovery rate (%) [3]: 0.0237%
Recovered nucleic acid amount (molecules) [3]: 2.32e+08 molecules
fold lower recovery rate than the GFP10-11 fusion peptide [4]: 1000 times
Recovery rate (%) [5]: 0.028%
Binder: MDLPDDHYLSTQTILLKDLNGSGSGSGSKK (modifications not checked) [GFP10]

— patent US20240069033A1, “METHOD FOR SCREENING FOR CANDIDATE MOLECULE CAPABLE OF FORMING COMPLEX IN CONJUNCTION WITH PLURALITY OF TARGET MOLECULES” (Chugai Seiyaku Kabushiki Kaisha, priority 2020, published 2024)
